According to publication PMC3264736:

Target: Pitx2 homeodomain wild-type (UniProt Q99697 85-144)
Test: ITC

B1: TAATCC consensus DNA (dsDNA)
DNA 1: GCTCTAATCCCCG
DNA 2: CGGGGATTAGAGC
Kd: 66 nM
